The test system of series [1] is Human. The conditions noted are these: in vivo; cited from earlier work.
Series [2] deals with Female Fischer344 rats or Sprague Dawley (SD) rats. The conditions noted are these: rat, in vivo. As to the method: Animals receiving LY2109761 were dosed by oral gavage once daily for five or seven days. Animals were sacrificed and necropsies performed.
Series [3] has as its system non-diseased rat BAL. Nature of the series: TGFβ downstream tonic signaling in rat BAL. It counts as in vivo. From the text: Indeed, data presented herein support this notion. […] Preferably, TGFβ antagonists for use in the treatment of such conditions exert their inhibitory activities only towards the disease-induced or disease-associated isoform, while preserving the function of the other isoforms that are normally expressed to mediate tonic signaling in the tissue. […] Alternatively or additionally, agents that target and block integrin-dependent activation of TGFβ may be capable of blocking only a subset of integrins responsible for disease-associated TGFβ1 activation, among numerous integrin types that are expressed by various cell types and play a role in the pathogenesis. Furthermore, even where such antagonists may selectively block integrin-mediated activation of the TGFβ1 isoform, it may be ineffective in blocking TGFβ1 activation triggered by other modes, such as protease-dependent activation. By contrast, the isoform-specific, inhibitors of TGFβ1 such as those described herein are aimed to prevent the activation step of TGFβ1 regardless of the particular mode of activation, while maintaining isoform selectivity. Preferably, the isoform-selective activation inhibitor of TGFβ1 is Ab46 or an engineered molecule comprising an antigen-binding fragment thereof.

For “GC1008: human analog of 1D11, pan-TGFβ antibody”, in series [1], the Half-life result is on record as “Half-life: 21.7 d”; the “previously reported adverse events in human patients” value is “leukocytosis (grade 3), fatigue (grade 3), hypoxia (grade 3), asystole (grade 5), leukopenia (grade 1), recurrent, transient, tender erythematous, nodular skin lesions, suppurative dermatitis, and herpes zoster”.
Take `c1ccc(-c2nn3c(c2-c2ccnc4cc(OCCN5CCOCC5)ccc24)CCC3)nc1` [LY2109761]: in series [2], the bone findings entry is “macroscopic abnormally shaped sternum and microscopic increased thickness of the hypertrophic zone in the endplate of the sternum and physis of the femur and tibia”. In addition, in series [3], the “TGFβ downstream tonic signaling” value is given as “inhibit TGFβ downstream tonic signaling”.

The values above are taken from patent US20230057012A1, “TGFB INHIBITORS AND USE THEREOF” (Scholar Rock, Inc., priority 2020, published 2023).
